# Patent publication US20220227830A1, “QD DOSING OF GIP RECEPTOR AGONIST PEPTIDE COMPOUNDS AND USES THEREOF” (Takeda Pharmaceutical Company Limited, priority 2020, published 2022)
# Starred links: 1 amine or outer side, 2 acyl side, 3 side chain; linkers in the order of their positions; H or OH if unused. Non-standard residues stand in square brackets, D forms with d. Groups on a side chain read outwards from the residue. No end group written: not given here. *: point of attachment. G2E3 = linker of 2 Gly and 3 Glu (read GGEEE); C16 diacid = O=C(O)CCCCCCCCCCCCCCC(=O)*; C15 diacid = O=C(O)CCCCCCCCCCCCCC(=O)*; γGlu = O=C(O)[C@H](CCC(=O)[*:2])N[*:1]; NMeY = CN[C@@H](Cc1ccc(O)cc1)C(=O)O; AEEA = NCCOCCOCC(=O)O; Aib = CC(C)(N)C(=O)O
# T1: full-length human GIPR with an N-terminal FLAG tag (human, UniProt P48546 22-466)
# T1 sequence (looked up): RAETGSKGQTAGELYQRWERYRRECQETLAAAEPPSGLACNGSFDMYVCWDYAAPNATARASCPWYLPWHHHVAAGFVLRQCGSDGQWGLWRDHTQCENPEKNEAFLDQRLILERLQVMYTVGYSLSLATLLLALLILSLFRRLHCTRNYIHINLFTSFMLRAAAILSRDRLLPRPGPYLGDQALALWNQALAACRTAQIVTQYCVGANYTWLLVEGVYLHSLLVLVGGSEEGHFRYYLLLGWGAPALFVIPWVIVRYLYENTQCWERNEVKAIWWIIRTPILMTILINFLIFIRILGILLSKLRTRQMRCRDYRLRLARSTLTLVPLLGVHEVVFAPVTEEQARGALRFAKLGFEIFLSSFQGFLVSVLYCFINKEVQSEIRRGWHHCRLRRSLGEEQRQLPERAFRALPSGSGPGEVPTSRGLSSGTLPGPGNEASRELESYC
# B1: Compound 136 (peptide)
# peptide: Me-Y[Aib]EGTFISDYSI[Aib]LDR[Aib]AQ[Aib]NFVNWLLAQK([AEEA-AEEA-γGlu-γGlu-C15 diacid])GGGGS-NH2
# B2: Compound 151 (peptide)
# peptide: Me-Y[Aib]EGTFISDYSIAKDR[Aib]AQ[Aib]DFVNWLLAQSPSSGAPPPS-NH2
# modifications: not fully specified (residues 1, 14)
# B3: Compound 150 (peptide)
# peptide: Me-Y[Aib]EGTFISDYSIAKDR[Aib]AQ[Aib]NFVNWLLAQSPSSGAPPPS-OH
# modifications: not fully specified (residues 1, 14)
# B4: Compound 132 (peptide)
# peptide: [NMeY][Aib]EGTFISDYSIALDRK([G5-γGlu-C15DA])AQ[Aib]DFVNWLLAQSPSSGAPPPS-NH2
# B5: Compound 147 (peptide)
# peptide: Me-Y[Aib]EGTFISDYSIAKDR[Aib]AQ[Aib]NFVNWLLAQRPSSGAPPPS-OH
# modifications: not fully specified (residues 1, 14)
# B6: Compound 141 (peptide)
# peptide: Me-Y[Aib]EGTFISDYSI[Aib]KDR[Aib]AQ[Aib]DFVNWLLAQSG-OH
# modifications: not fully specified (residues 1, 14)
# B7: Compound 149 (peptide)
# peptide: Me-Y[Aib]EGTFISDYSIALDR[Aib]AQ[Aib]K([AEEA-AEEA-γGlu-γGlu-C15 diacid])FVNWLLAQSG-OH
# B8: Compound 129 (peptide)
# peptide: [NMeY][Aib]EGTFISDYSI[Aib]K([AEEA-AEEA-γGlu-C15 diacid])DR[Aib]AQ[Aib]DFVNWLLAQSPSSGAPPPS-NH2
# modifications: N-terminus assumed
# SMILES: CC[C@H](C)[C@H](NC(=O)[C@H](Cc1ccccc1)NC(=O)[C@@H](NC(=O)CNC(=O)[C@H](CCC(=O)O)NC(=O)C(C)(C)NC(=O)[C@H](Cc1ccc(O)cc1)NC)[C@@H](C)O)C(=O)N[C@@H](CO)C(=O)N[C@@H](CC(=O)O)C(=O)N[C@@H](Cc1ccc(O)cc1)C(=O)N[C@@H](CO)C(=O)N[C@H](C(=O)NC(C)(C)C(=O)N[C@@H](CCCCNC(=O)COCCOCCNC(=O)COCCOCCNC(=O)CC[C@H](NC(=O)CCCCCCCCCCCCCC(=O)O)C(=O)O)C(=O)N[C@@H](CC(=O)O)C(=O)N[C@@H](CCCNC(=N)N)C(=O)NC(C)(C)C(=O)N[C@@H](C)C(=O)N[C@@H](CCC(N)=O)C(=O)NC(C)(C)C(=O)N[C@@H](CC(=O)O)C(=O)N[C@@H](Cc1ccccc1)C(=O)N[C@H](C(=O)N[C@@H](CC(N)=O)C(=O)N[C@@H](Cc1c[nH]c2ccccc12)C(=O)N[C@@H](CC(C)C)C(=O)N[C@@H](CC(C)C)C(=O)N[C@@H](C)C(=O)N[C@@H](CCC(N)=O)C(=O)N[C@@H](CO)C(=O)N1CCC[C@H]1C(=O)N[C@@H](CO)C(=O)N[C@@H](CO)C(=O)NCC(=O)N[C@@H](C)C(=O)N1CCC[C@H]1C(=O)N1CCC[C@H]1C(=O)N1CCC[C@H]1C(=O)N[C@@H](CO)C(N)=O)C(C)C)[C@@H](C)CC
# B9: Compound 140 (peptide)
# peptide: Me-Y[Aib]EGTFISDYSI[Aib]KDR[Aib]AQ[Aib]DFVNWLLAQSPSSGAPPPS-NH2
# modifications: not fully specified (residues 1, 14)
# B10: Compound 133 (peptide)
# peptide: [NMeY][Aib]EGTFISDYSIALDR[Aib]KQ[Aib]NFVNWLLAQSGGGGS-NH2
# modifications: not fully specified (residue 18)
# B11: Compound 137 (peptide)
# peptide: [NMeY][Aib]EGTFISDYSIALDRK([Gly-Gly-Gly-Gly-Gly-γGlu-C15 diacid])AQ[Aib]DFVNWLLAQRPSSGAPPPS-NH2
# B12: Compound 139 (peptide)
# peptide: Me-Y[Aib]EGTFISDYSI[Aib]K([AEEA-AEEA-γGlu-γGlu-C15 diacid])DR[Aib]AQ[Aib]NFVNWLLAQSPSSGAPPPS-NH2
# B13: Compound 12 (peptide)
# peptide: [NMeY][Aib]EGTFISDYSIALDR[Aib]HQ[Aib]K([AEEA-AEEA-γGlu-C15 diacid])FVNWLLAQK-OH
# modifications: N-terminus assumed
# SMILES: CC[C@H](C)[C@H](NC(=O)[C@H](CO)NC(=O)[C@H](Cc1ccc(O)cc1)NC(=O)[C@H](CC(=O)O)NC(=O)[C@H](CO)NC(=O)[C@@H](NC(=O)[C@H](Cc1ccccc1)NC(=O)[C@@H](NC(=O)CNC(=O)[C@H](CCC(=O)O)NC(=O)C(C)(C)NC(=O)[C@H](Cc1ccc(O)cc1)NC)[C@@H](C)O)[C@@H](C)CC)C(=O)N[C@@H](C)C(=O)N[C@@H](CC(C)C)C(=O)N[C@@H](CC(=O)O)C(=O)N[C@@H](CCCNC(=N)N)C(=O)NC(C)(C)C(=O)N[C@@H](Cc1c[nH]cn1)C(=O)N[C@@H](CCC(N)=O)C(=O)NC(C)(C)C(=O)N[C@@H](CCCCNC(=O)COCCOCCNC(=O)COCCOCCNC(=O)CC[C@H](NC(=O)CCCCCCCCCCCCCC(=O)O)C(=O)O)C(=O)N[C@@H](Cc1ccccc1)C(=O)N[C@H](C(=O)N[C@@H](CC(N)=O)C(=O)N[C@@H](Cc1c[nH]c2ccccc12)C(=O)N[C@@H](CC(C)C)C(=O)N[C@@H](CC(C)C)C(=O)N[C@@H](C)C(=O)N[C@@H](CCC(N)=O)C(=O)N[C@@H](CCCCN)C(=O)O)C(C)C
# B14: Compound 135 (peptide)
# peptide: [NMeY][Aib]EGTFISDYSI[Aib]LDRK([AEEA-AEEA-γGlu-γGlu-C15 diacid])AQ[Aib]NFVNWLLAQRGGGGS-NH2
# B15: Compound 131 (peptide)
# peptide: [NMeY][Aib]EGTFISDYSIALDRK([Gly-Gly-Gly-Gly-Gly-γGlu-C15 diacid])AQ[Aib]NFVNWLLAQSPSSGAPPPS-NH2
# modifications: N-terminus assumed
# SMILES: CC[C@H](C)[C@H](NC(=O)[C@H](CO)NC(=O)[C@H](Cc1ccc(O)cc1)NC(=O)[C@H](CC(=O)O)NC(=O)[C@H](CO)NC(=O)[C@@H](NC(=O)[C@H](Cc1ccccc1)NC(=O)[C@@H](NC(=O)CNC(=O)[C@H](CCC(=O)O)NC(=O)C(C)(C)NC(=O)[C@H](Cc1ccc(O)cc1)NC)[C@@H](C)O)[C@@H](C)CC)C(=O)N[C@@H](C)C(=O)N[C@@H](CC(C)C)C(=O)N[C@@H](CC(=O)O)C(=O)N[C@@H](CCCNC(=N)N)C(=O)N[C@@H](CCCCNC(=O)CNC(=O)CNC(=O)CNC(=O)CNC(=O)CNC(=O)CC[C@H](NC(=O)CCCCCCCCCCCCCC(=O)O)C(=O)O)C(=O)N[C@@H](C)C(=O)N[C@@H](CCC(N)=O)C(=O)NC(C)(C)C(=O)N[C@@H](CC(N)=O)C(=O)N[C@@H](Cc1ccccc1)C(=O)N[C@H](C(=O)N[C@@H](CC(N)=O)C(=O)N[C@@H](Cc1c[nH]c2ccccc12)C(=O)N[C@@H](CC(C)C)C(=O)N[C@@H](CC(C)C)C(=O)N[C@@H](C)C(=O)N[C@@H](CCC(N)=O)C(=O)N[C@@H](CO)C(=O)N1CCC[C@H]1C(=O)N[C@@H](CO)C(=O)N[C@@H](CO)C(=O)NCC(=O)N[C@@H](C)C(=O)N1CCC[C@H]1C(=O)N1CCC[C@H]1C(=O)N1CCC[C@H]1C(=O)N[C@@H](CO)C(N)=O)C(C)C
# B16: Compound 146 (peptide)
# peptide: Me-Y[Aib]EGTFISDYSIAKDR[Aib]AQ[Aib]DFVNWLLAQRPSSGAPPPS-OH
# modifications: not fully specified (residues 1, 14)
# B17: Compound 130 (peptide)
# peptide: [NMeY][Aib]EGTFISDYSIALDR[Aib]AQ[Aib]KFVNWLLAQRPSSGAPPPS-NH2
# modifications: not fully specified (residue 21)
# B18: Compound 134 (peptide)
# peptide: [NMeY][Aib]EGTFISDYSI[Aib]KDR[Aib]AQ[Aib]NFVNWLLAQRGGGGS-NH2
# modifications: not fully specified (residue 14)
# B19: Compound 138 (peptide)
# peptide: Me-Y[Aib]EGTFISDYSI[Aib]K([G2E3-C15 diacid])DR[Aib]AQ[Aib]NFVNWLLAQRPSSGAPPPS-NH2
# B20: Compound 145 (peptide)
# peptide: [NMeY][Aib]EGTFISDYSI[Aib]LDRK([AEEA-AEEA-γGlu-γGlu-C16 diacid])AQ[Aib]NFVNWLLAQRPSSGAPPPS-NH2
# Target: T1, full-length human GIPR with an …
# Assay: cell-based or functional assay
row,Binder,"Human GIPR cAMP, HEK293T EC50"
1,B1,0.9 pM
2,B2,0.4 pM
3,B3,0.3 pM
4,B4,0.1 pM
5,B5,1.1 pM
6,B6,0.3 pM
7,B7,0.7 pM
8,B8,0.5 pM
9,B9,0.4 pM
10,B10,0.5 pM
11,B11,0.2 pM
12,B12,0.4 pM
13,B13,0.2 pM
14,B14,0.5 pM
15,B15,0.3 pM
16,B16,0.5 pM
17,B17,0.4 pM
18,B18,0.4 pM
19,B19,0.4 pM
20,B20,0.4 pM

# Target: full-length human GLP-1R with an N-terminal FLAG tag (human, UniProt P43220 24-463)
# Assay: cell-based or functional assay
row,Binder,Human GLP1R cAMP HEK293T EC50
1,B1,407 nM
2,B2,145 nM
3,B3,30.2 nM
4,B4,21.9 nM
5,B5,16.6 nM
6,B6,64.6 nM
7,B7,25.7 nM
8,B8,1000 nM
9,B9,178 nM
10,B10,1000 nM
11,B11,479 nM
12,B12,1000 nM
13,B13,363 nM
14,B14,646 nM
15,B15,75.9 nM
16,B16,112 nM
17,B17,91.2 nM
18,B18,1000 nM
19,B19,1000 nM
20,B20,912 nM
